Data set [1] deals with human GLP-1R (Homo sapiens, UniProt P43220). Kind of data set: cAMP accumulation assay (HTRF) in stable CHO cell line expressing human GLP-1R. In kind it is cell-based. The protocol:
Cell-based cyclic adenosine monophosphate (cAMP) accumulation assays were used to measure in vitro potency for GLP-1RAs in a stable Chinese hamster ovary (CHO) cell line expressing human GLP-1R (generated at AstraZeneca) or EndoC-βH1 cells endogenously expressing the GLP-1R (Endocells, Paris, France) as previously described. In brief, test GLP-1RA serial dilutions were prepared using an ECHO® acoustic liquid handler (Beckman, High Wycombe, UK) to obtain an 11-point dose–response curve in assay buffer (Hanks’ balanced salt solution (HBSS)) supplemented with 25 mM of HEPES and 0.5 mM of 3-isobutyl-1-methylxanthine (IBMX). […] The EndoC-βH1 cell assay was performed in an assay buffer containing 0.1% BSA.
Following compound and cell incubation for 30 min, the level of cAMP accumulation was determined using a cAMP dynamic 2 HTRF (homogeneous time-resolved fluorescence) kit (Cisbio, Codolet, France), following the two-step protocol according to the manufacturer’s guidelines. Treated cells were incubated with anti-cAMP cryptate and cAMP-d2 in lysis buffer at room temperature for 1 h and read on an Envision plate reader (PerkinElmer, Waltham, MA, USA).

The conditions of data set [2]: human, cited from earlier work. The source says: Pharmacokinetic parameters representing rate of absorption (Ka), central clearance (CL), central volume (Vc), peripheral volume (Vp), distribution clearance (CLd), bioavailability (F) and lag- time (Tlag).

Like-named read-outs stand apart in the source and are kept apart here.

Sequence of human GLP-1R (P43220 24-463): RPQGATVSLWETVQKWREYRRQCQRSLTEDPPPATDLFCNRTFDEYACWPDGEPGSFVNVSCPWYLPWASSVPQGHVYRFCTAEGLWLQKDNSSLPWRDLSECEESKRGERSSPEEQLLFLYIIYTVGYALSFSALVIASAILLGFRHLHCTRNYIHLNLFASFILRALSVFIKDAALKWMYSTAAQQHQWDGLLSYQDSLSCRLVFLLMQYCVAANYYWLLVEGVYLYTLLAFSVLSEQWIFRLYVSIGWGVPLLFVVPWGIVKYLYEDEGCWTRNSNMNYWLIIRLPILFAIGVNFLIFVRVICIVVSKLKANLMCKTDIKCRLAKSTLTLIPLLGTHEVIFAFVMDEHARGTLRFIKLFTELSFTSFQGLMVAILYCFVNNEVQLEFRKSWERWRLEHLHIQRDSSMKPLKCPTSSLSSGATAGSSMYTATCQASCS

Regarding “Dulaglutide: a DPP-IV-protected GLP-1 analog covalently linked to a human IgG4-Fc heavy chain by a peptide linker”, the EC50 came out at 9.07 pM in data set [1] (read-out: EC50 (pM) 0.1%, NSB = BSA, shift assay Table S1A, 0.1% BSA); 46.4 pM in data set [1] (read-out: EC50 (pM) 0.1%, NSB = OA, shift assay Table S1B, 0.1% ovalbumin); 10.8 pM in data set [1] (read-out: EC50 (pM) 0.3%, NSB = BSA, shift assay Table S1A, 0.3% BSA); 34.1 pM in data set [1] (read-out: EC50 (pM) 0.3%, NSB = OA, shift assay Table S1B, 0.3% ovalbumin); 12.1 pM in data set [1] (read-out: EC50 (pM) 1%, NSB = BSA, shift assay Table S1A, 1% BSA); 30.7 pM in data set [1] (read-out: EC50 (pM) 1%, NSB = OA, shift assay Table S1B, 1% ovalbumin). Further, the EC50 in data set [1] (read-out: EC50 (pM) 3%, NSB = BSA, shift assay Table S1A, 3% BSA) was found to be 9.7 pM; in data set [1] (read-out: EC50 (pM) 3%, NSB = OA, shift assay Table S1B, 3% ovalbumin), 26 pM. For the same compound, in data set [2] (in vivo), the “bioavailability F” value was 0.47. For the same compound, the “central clearance CL” value in data set [2] (in vivo) is 0.0593 L/h. Moreover, the “central volume Vc” value in data set [2] (in vivo) is 2.25 L. In addition, in data set [2] (in vivo), the “distribution clearance CLd” value is listed as 0.0201 L/h. For the same compound, the “peripheral volume Vp” value in data set [2] (in vivo) is recorded as 3.75 L. Moreover, the “rate of absorption Ka” value in data set [2] (in vivo) is 0.00769 h⁻¹.
As to `CCCCCCCCCCCCCCCC(=O)N[C@@H](CCC(=O)NCCCC[C@H](NC(=O)[C@H](C)NC(=O)[C@H](C)NC(=O)[C@H](CCC(N)=O)NC(=O)CNC(=O)[C@H](CCC(=O)O)NC(=O)[C@H](CC(C)C)NC(=O)[C@H](Cc1ccc(O)cc1)NC(=O)[C@H](CO)NC(=O)[C@H](CO)NC(=O)[C@@H](NC(=O)[C@H](CC(=O)O)NC(=O)[C@H](CO)NC(=O)[C@@H](NC(=O)[C@H](Cc1ccccc1)NC(=O)[C@@H](NC(=O)CNC(=O)[C@H](CCC(=O)O)NC(=O)[C@H](C)NC(=O)[C@@H](N)Cc1cnc[nH]1)[C@@H](C)O)[C@@H](C)O)C(C)C)C(=O)N[C@@H](CCC(=O)O)C(=O)N[C@@H](Cc1ccccc1)C(=O)N[C@H](C(=O)N[C@@H](C)C(=O)N[C@@H](Cc1c[nH]c2ccccc12)C(=O)N[C@@H](CC(C)C)C(=O)N[C@H](C(=O)N[C@@H](CCCNC(=N)N)C(=O)NCC(=O)N[C@@H](CCCNC(=N)N)C(=O)NCC(=O)O)C(C)C)[C@@H](C)CC)C(=O)O` [Liraglutide], the “lag-time Tlag” value in data set [2] (T2D, ref [7] (supplement references)) was 6 h. Also, the “bioavailability F” value in data set [2] (fraction, dulaglutide value at 1.5 mg, ref [4] dulaglutide, [5] semaglutide oral, [6] semaglutide sc, [7] liraglutide (supplement references)) is 0.51. Moreover, in data set [2] (population PK, T2D (semaglutide oral: T2D, obesity), ref [4] dulaglutide, [5] semaglutide oral, [6] semaglutide sc, [7] liraglutide (supplement references)), the “central clearance CL” value is 0.91 L/h.

The record behind these values is paper PMC11510446, “Establishing a Relationship between In Vitro Potency in Cell-Based Assays and Clinical Efficacious Concentrations for Approved GLP-1 Receptor Agonists” (Pharmaceutics, 2024).
